The source of these data is patent US20090311710A1, “MUTAGENESIS METHODS USING RIBAVIRIN AND/OR RNA REPLICASES” (priority 2002, published 2009).

This assay has as its system TEM-1 Θ-lactamase (bla) gene expressed in bacteria. The experiment in a line: Cefotaxime resistance (MIC) conferred by mutant bla clones. The class given is cell-based. The note with it: bla clone expressed in bacteria; listed as wild-type bla gene. An excerpt: T7 RNA polymerase with the addition of 1000TM ribavirin 5′ triphosphate (dTRV) was used to transcribe (−) RNA from the bla gene θ-lactamase gene for antibiotic resistance) on plasmid pEGX205. The bla RNA was subsequently converted to cDNA using M-MuLV-reverse transcriptase, amplified with Pfu DNA polymerase, cut with appropriate restriction enzymes, and cloned into the plasmid pEGX212. Clones resistant to increased concentrations of cefotaxime were selected and sequenced (the minimum inhibitory concentration [MIC] for the wild-type bla gene was 0.02 ug/ml). […] When clone CefR E1 RNA was taken through a second round of T7 polymerase/dTRV mutagenesis, 3 clones containing 3 or more mutations were selected with one clone (F-E1-1) showing a 10,000-fold increase in cefotaxime resistance over the wild-type. No resistant mutants were isolated in the mutation/selection experiments that used T7 polymerase alone.

B1: Wild-type: wild-type TEM-1 β-lactamase (bla) gene for antibiotic resistance (protein, UniProt P62593 24-286, looked up)
Beta-lactamase TEM: HPETLVKVKDAEDQLGARVGYIELDLNSGKILESFRPEERFPMMSTFKVLLCGAVLSRVDAGQEQLGRRIHYSQNDLVEYSPVTEKHLTDGMTVRELCSAAITMSDNTAANLLLTTIGGPKELTAFLHNMGDHVTRLDRWEPELNEAIPNDERDTTMPAAMATTLRKLLTGELLTLASRQQLIDWMEADKVAGPLLRSALPAGWFIADKSGAGERGSRGIIAALGPDGKPSRIVVIYTTGSQATMDERNRQIAEIGASLIKHW
As to B1, the “cefotaxime minimum inhibitory concentration (MIC)” value came out at 0.02 µg/mL.
